These results are taken from patent US20250270296A1.

Numbering of substitutions follows the chain as printed.

The chains are these.
B1: RBD-chAb-45 (antibody, V domains shown)
VH: EVQLQQSGPELVKPGASVKISCKTSGYTFTEYTIYWVKQSLGKSLEWIGGNNPNNDDTTYKQFFKGKATLTVDKSSSTAYMELRSLTSEDSAVYYCARDGYPYYYALDFWGQGTSVTVSS
VL: DILMTQSQKFMSTSVGDRVSVTCKSSQNVGTNVAWYQQKPGQSPKALIYSASYRYSGVPDHFTGSGSGTDFTLTISNVQSADLAEYFCQQYNNYPWTFGGGTKLDIK
B2: RBD-chAb-51 (antibody, V domains shown)
VH: B1 VH with V18A, I34M, L41H, N51I, D56G, K61N, F63T, Y103F, F109Y, T114I
VL: DIVMTQSQKFMSTSVGDRVSVTCKARQIVGTNVAWYQQKPGQSPKALIYSASYRYSGVPDRFTGSGSGTDFTLTITNVHSEDLAEFFCHQYNSYPWTFGGGTKLDIK
B3: RBD-chAb-15 (antibody, V domains shown)
VH: EVQLEESGPGLVQPSQSLSITCTVSDFSLTTYGVHWVRQSPGKGLEWLGVIWSGGSTDYNAAFISRLSISKDNSKSQVFFKMNSLQTNDTAIYYCARMGDGYYVGAMDYWGQGTSVTVSS
VL: DIQLTQSPAILSVSPGERVSFSCRASQSIGTSIHWYQQRTNGSPRHLIKYASESISGIPSRFSGSGSGTDFTLTINGVESEDIADYYCQQGHNWPLTFGAGTKLDIK
B4: RBD-chAb-1 (antibody, V domains shown)
VH: EVQLQQSGPQLVRPGASMKISCKASGYSFTTYWMHWVKQRPGQGLQWIGMIDPSDSETRLNQKFKDKATLTVDKSSSTAYMQLSSPTSEDSAVYYCARDFDYDRTMDYWGQGTSVTVSS
VL: DIVMSQSPSSLAVSVGEKVTMSCKSSQSLLFSSSQKNYLAWYQQKAGQSPKLLIFWASTRESGVPDRFTGSGSGTDFTLTISSVKAEDLAIYYCKQYYKYPLTFGAGTKLDIK
B5: RBD-chAb-28 (antibody, V domains shown)
VH: QVQLQQPGTELVMPGASVKMSCKASGYTFTDYYLHWMKQRPGQGLEWIGAIDSSDSYTDYNQNFKGKATLTVDESSSTAYMHLSSLTSEDSAVYYCARGKDAYDRRPWFAYWGQGTLVTVSA
VL: DIQMTQTTSSLSASLGDRVTISCSASQGIRYYLNWYQQKPDGTVKLLIYYTSNLHSGVPSRFSGSGSGTDYSLTISNLEPEDIATYYCQQYNKLPYTFGGGTKLDIK

Substrate in one experiment: S protein of SARS-CoV-2 variant B.1.1.7 (UK, Alpha), full length, on pseudovirus or authentic virus (SARS-CoV-2), P0DTC2
Kind of experiment: cell-based or functional assay.
On to B1, for which the PRNT50 worked out at 5.29 ng/mL and the SARS-CoV2 pseudovirus IC50 came to 2.06 ng/mL.

B2: the PRNT50 stood at 6.39 ng/mL and the SARS-CoV2 pseudovirus IC50 was determined as 3.07 ng/mL.

B3: the PRNT50 came out at 58.1 ng/mL and the SARS-CoV2 pseudovirus IC50 came to 39.7 ng/mL.

In the case of B4, the SARS-CoV2 pseudovirus IC50 amounted to 33.5 ng/mL.

For the molecule B5, the PRNT50 turned out to be 58.5 ng/mL and the SARS-CoV2 pseudovirus IC50 was 11.3 ng/mL.

Substrate in another experiment: S protein of SARS-CoV-2 variant P1 (Brazil, Gamma), full length, on pseudovirus or authentic virus (SARS-CoV-2), P0DTC2
The experiment can be described thus: cell-based or functional assay.
As for B1, the PRNT50 stood at 3.26 ng/mL and the SARS-CoV2 pseudovirus IC50 came out at 0.76 ng/mL.

B2: the PRNT50 is 2.92 ng/mL and the SARS-CoV2 pseudovirus IC50 came out at 0.7 ng/mL.

Consider B3, for which the PRNT50 was 50.9 ng/mL and the SARS-CoV2 pseudovirus IC50 was 7.18 ng/mL.

For B4, the SARS-CoV2 pseudovirus IC50 came out at 17.1 ng/mL.

Take B5: the PRNT50 is 58.3 ng/mL and the SARS-CoV2 pseudovirus IC50 turned out to be 4.18 ng/mL.

Substrate in a further experiment: S protein of SARS-CoV-2 variant B.1.351 (SA, Beta), full length, on pseudovirus (SARS-CoV-2), P0DTC2
The experiment can be described thus: cell-based or functional assay.
Consider B1, for which the SARS-CoV2 pseudovirus IC50 is 2.68 ng/mL.

On to B2, for which the SARS-CoV2 pseudovirus IC50 was 1.26 ng/mL.

For the molecule B3, the SARS-CoV2 pseudovirus IC50 is 30.1 ng/mL.

As for B4, the SARS-CoV2 pseudovirus IC50 is 46.7 ng/mL.

With B5, the SARS-CoV2 pseudovirus IC50 came to 16.5 ng/mL.
